Laboratory results taken from the RNAGym collection of RNA variant scans (doi:10.7554/elife.80360).

B1: HDV Ribozyme (parent)
chain: GGCCGGCAUGGUCCCAGCCUCCUCGCUGGCGCCGGCUGGGCAACAUUCCGAGGGGACCGUCCCCUCGGUAAUGGCGAAUGGGACCCA

Variants of: B1
Assay: self-cleavage, relative activity (ratio to wild type); higher = more cleavage; co-transcriptional

Row | Variant | self-cleavage
1 | GGCCGGCAUGGCCCCAGCCUCCUCGCUGGCGCCGGCUGGGCAACAUUCCGAGGGGACCGUCCCCUCGGUAAUCGCGAAUGGGACCCA | 0.116
2 | GGCCGGCAUGGCCCCAGCCUCCUCGCUGGCGCCGGCUGGGCAACAUUCCGAGGGGACCGUCCUCUCGGUAAUGGCGAAUGGGACCCA | 0.389
3 | GGCCGGCAUGGCCCCAGCCUCCUCGCUGGCGCCGGCUGGGCAACAUUCCGAGGGGACCGUCCACUCGGUAAUGGCGAAUGGGACCCA | 0.268
4 | GGCCGGCAUGGCCCCAGCCUCCUCGCUGGCGCCGGCUGGGCAACAUUCCGAGGGGACCGUCACCUCGGUAAUGGCGAAUGGGACCCA | 0.57
5 | GGCCGGCAUGGCCCCAGCCUCCUCGCUGGCGCCGGCUGGGCAACAUUCCGAGGGGACCGUCUCCUCGGUAAUGGCGAAUGGGACCCA | 0.348
6 | GGCCGGCAUGGCCCCAGCCUCCUCGCGGGCGCCGGCUGGGCAACAUUCCGAGGGGACCGUCCCCUCGGUAAUGGCGAAUGGGACCCA | 0.312
7 | GGCCGGCAUGGGCCCAGCCUCCUCGCUGGCGCCGGCUGGGCAACAUUCCGAGGGGACCGUCCCCUCGGUAAUGGCGAUUGGGACCCA | 0
8 | GGCCGGCAUGGGCCCAGCCUCCUCGCUGGCGCCGGCUGGGCAACAUUGCGAGGGGACCGUCCCCUCGGUAAUGGCGAAUGGGACCCA | 0.831
9 | GGCCGGCAUGGGCCCAGCCUCCUCGCUGGCGCCGGCUGGGCAACAUUCCGAGGGGACCGUCCCCUCGGUAAUGGCGAAUGGGACCUA | 0.403
10 | GGCCGGCAUGGGCCCAGCCUCCUCGCUGGCGCCGGCUGGGCAACAUUCCGAGGGGACCGUCCCGUCGGUAAUGGCGAAUGGGACCCA | 0.492
11 | GGCCGGCAUGGCCCCAGCCUCCUCGCUGGCGCCGGCUGGUCAACAUUCCGAGGGGACCGUCCCCUCGGUAAUGGCGAAUGGGACCCA | 0.0627
12 | GGCCGGCAUGGCCCCAGCCUCCUCGCUGGCGCCGGCUGGACAACAUUCCGAGGGGACCGUCCCCUCGGUAAUGGCGAAUGGGACCCA | 0.305
13 | GGCCGGCAUGGGCCCAGCCUCCUCGCUGGCGCCGGCUGGGCAACAUUCCGAGGGGACCGUCCCCUCGGUAAUGGGGAAUGGGACCCA | 0
14 | GGCCGGCAUGGGCCCAGCCUCCUCGCUGGCGCCGGCUGGGCAACAUUCCGAGGGGACAGUCCCCUCGGUAAUGGCGAAUGGGACCCA | 0.962
15 | GGCCGGCAUGGGCCCAGCCUCCUCGCUGGCGCCGGGUGGGCAACAUUCCGAGGGGACCGUCCCCUCGGUAAUGGCGAAUGGGACCCA | 0
16 | GGCCGGCAUGGCCCCAGCCUCCUCGCUGGCGCCGGCUUGGCAACAUUCCGAGGGGACCGUCCCCUCGGUAAUGGCGAAUGGGACCCA | 0.0739

Row | Variant | self-cleavage
17 | GGCCGGCAUGGGCCCAGCCUCCUCACUGGCGCCGGCUGGGCAACAUUCCGAGGGGACCGUCCCCUCGGUAAUGGCGAAUGGGACCCA | 0.151
18 | GGCCGGCAUGGCCCCAGCCUCCUCGCUGGCGCCGGCUGGGCAACAUUCCGAGGGGACCGUCCCCUCGGUAAUGGCGAACGGGACCCA | 0.133
19 | GGCCGGCAUGGCCCCAGCCUCCUCGCUGGCGCCGGCUGGGCAACAUUCCGAGGGGACCGUCCCCUCGGUAAUGGCGAAGGGGACCCA | 0.0791
20 | GGCCGGCAUGGCCCCAGCCUCCUCGCUGGCGCCGGCUGGGCAACAUUCCGAGGGGACCGUCCCCUCGGUAAUGGCGAAAGGGACCCA | 0.0615
21 | GGCCGGCAUGGCCCCAGCCUCCUCGCUGGCGCCGGCUGGGCAACAUUCCGAGGAGACCGUCCCCUCGGUAAUGGCGAAUGGGACCCA | 0.862
22 | GGCCGGCAUGGGCCCAGCCUCCUCGCUGGCGCCGGCUGGGCCACAUUCCGAGGGGACCGUCCCCUCGGUAAUGGCGAAUGGGACCCA | 0.217
23 | GGCCGGCAUGGCCCCAGCCUCCUCGCUGGCGCCGGCUGGGCAACAUUCCGAGGGGACCGUACCCUCGGUAAUGGCGAAUGGGACCCA | 0.511
24 | GGCCGGCAUGGGCCCGGCCUCCUCGCUGGCGCCGGCUGGGCAACAUUCCGAGGGGACCGUCCCCUCGGUAAUGGCGAAUGGGACCCA | 1.06
25 | GGCCGGCAUGGCCCCAGCCUCCUCGCUUGCGCCGGCUGGGCAACAUUCCGAGGGGACCGUCCCCUCGGUAAUGGCGAAUGGGACCCA | 0.0378
26 | GGCCGGCAUGGGCCCAGCCUCCUCGCUGGCGCCGGCUGGGCAUCAUUCCGAGGGGACCGUCCCCUCGGUAAUGGCGAAUGGGACCCA | 0.0639
27 | GGCCGGCAUGGGCCCAGCCUCCUCGCUGGCGCCGGCUGGGCAGCAUUCCGAGGGGACCGUCCCCUCGGUAAUGGCGAAUGGGACCCA | 0.237
28 | GGCCGGCAUGGCCCCAGCCUCCUCGCUGGCGCCGGCUGGGCAACAUUCCGAGGGGACCGUCCCCUCGGUAAUGUCGAAUGGGACCCA | 0.0692
29 | GGCCGGCAUGGCCCCAGCCUCCUCGCUGGCGCCGGCUGGGCAACAUUCCGAGGGGACCGUCCCCUCGGAAAUGGCGAAUGGGACCCA | 0.166
30 | GGCCGGCAUGGCCCCAGCCUCCUCGCUGGCGCCGGCUGGGCAACAUUCCGAGAGGACCGUCCCCUCGGUAAUGGCGAAUGGGACCCA | 0.369
31 | GGCCGGCAUGGCCCCAGCCUCCUCGCUGGCGCCGGCUGGGCAACAUUCCGAGGGGACCGUCCCCUCGGUAAUGGCGAAUGGUACCCA | 0.104
32 | GGCCGGCAUGGCCCCAGCCUCCUCGCUGGCGCCGGCUGGGCAACAUUCCGAGGGGACCGUCCCCUCGGUAAUGGCGAAUGGAACCCA | 0.0923
